Assays:
[1] = biological target: HomB, outer membrane protein of Helicobacter pylori (recombinant, C-terminal His-tag) (Helicobacter pylori strain J99); experiment: SEC; 1 mg protein on Superose 12, 50 mM Tris-Cl pH 8.0, 300 mM NaCl, 4 °C, 0.5 ml/min; alone or with detergents (LDAO, CHAPS, TWEEN 20) or 1 mM lipids (DMPC, DOPC); calibrated with molecular weight markers
[2] = biological target: HomB, outer membrane protein of Helicobacter pylori (recombinant, C-terminal His-tag) (Helicobacter pylori strain J99); experiment: SAXS; ~2.5 mg/ml protein in 20 mM Tris-Cl pH 8, 200 mM NaCl, 5 mM BME; molecular weight from Porod volume, concentration-independent
[3] = biological target: HomB, outer membrane protein of Helicobacter pylori (recombinant, C-terminal His-tag) (Helicobacter pylori strain J99); experiment: SDS-PAGE of SEC fractions; monomer and dimer peak fractions of the size exclusion runs on SDS-PAGE with or without beta-mercaptoethanol
[4] = biological target: HomA, outer membrane protein of Helicobacter pylori (recombinant, C-terminal His-tag) (Helicobacter pylori strain J99); experiment: SEC; 1 mg protein on Superose 12, 50 mM Tris-Cl pH 8.0, 300 mM NaCl, 4 °C, 0.5 ml/min; alone or with detergents (LDAO, CHAPS, TWEEN 20) or 1 mM lipids (DMPC, DOPC); calibrated with molecular weight markers
[5] = biological target: HomA, outer membrane protein of Helicobacter pylori (recombinant, C-terminal His-tag) (Helicobacter pylori strain J99); experiment: SAXS; ~2.5 mg/ml protein in 20 mM Tris-Cl pH 8, 200 mM NaCl, 5 mM BME; molecular weight from Porod volume, concentration-independent
[6] = biological target: HomA, outer membrane protein of Helicobacter pylori (recombinant, C-terminal His-tag) (Helicobacter pylori strain J99); experiment: SDS-PAGE of SEC fractions; monomer and dimer peak fractions of the size exclusion runs on SDS-PAGE with or without beta-mercaptoethanol

Measured: stoichiometry N

HomB, outer membrane protein of Helicobacter pylori (recombinant, C-terminal His-tag) (natural protein)
2: [1] | [2] | [3]

HomA, outer membrane protein of Helicobacter pylori (recombinant, C-terminal His-tag) (natural protein)
2: [4] | [5] | [6]

From article PMC8714817
